# Experimental data reported in US6534281.
# How the values were obtained:
# human C-peptide (human) [1] = experiment: ELISA on immobilized C-peptide; labeled antibody 10 ug/ml, free C-peptide 0 ug/ml
# human proinsulin (human) [2] = molecular target: human proinsulin (human) (UniProt P01308); experiment: sandwich immunoassay, one-step, against C-peptide calibration; proinsulin 50 ng/ml; CPT-3-F11 on particles, labeled antibody PEP-001
# human proinsulin (human) [3] = molecular target: human proinsulin (human) (UniProt P01308); experiment: sandwich immunoassay, one-step; proinsulin 50 ng/ml; CPT-3F-11 on particles, labeled antibody 9101
# [4] = molecular target: modified C-peptide (human C-peptide having Arg-Arg bound to its N-terminal and Lys-Arg bound to its C-terminal) (human); experiment: sandwich immunoassay, two-step, against C-peptide calibration; modified C-peptide 5 ng/ml; CPT-3F-11 on particles, labeled antibody PEP-001
# Chain of modified C-peptide (human C-peptide having Arg-Arg bound to its N-terminal and Lys-Arg bound to its C-terminal) (human) (peptide, as listed by the source): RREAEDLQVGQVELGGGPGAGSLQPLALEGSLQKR
# human proinsulin (human) [5] = molecular target: human proinsulin (human) (UniProt P01308); experiment: sandwich immunoassay, two-step, against C-peptide calibration; proinsulin 200 ng/ml; CPT-3-F11 on particles, labeled antibody 9101
# human proinsulin (human) [6] = molecular target: human proinsulin (human) (UniProt P01308); experiment: sandwich immunoassay, one-step; proinsulin 200 ng/ml; CPT-3F-11 on particles, labeled antibody 9101
# human C-peptide (human) [7] = experiment: ELISA on immobilized C-peptide; labeled antibody 10 ug/ml, free C-peptide 0 ug/ml (reference)
# human proinsulin (human) [8] = molecular target: human proinsulin (human) (UniProt P01308); experiment: sandwich immunoassay, two-step, against C-peptide calibration; proinsulin 400 ng/ml; CPT-3-F11 on particles, labeled antibody 9101
# human proinsulin (human) [9] = molecular target: human proinsulin (human) (UniProt P01308); experiment: sandwich immunoassay, one-step, against C-peptide calibration; proinsulin 200 ng/ml; CPT-3-F11 on particles, labeled antibody 9101
# human proinsulin (human) [10] = molecular target: human proinsulin (human) (UniProt P01308); experiment: sandwich immunoassay, two-step, against C-peptide calibration; proinsulin 400 ng/ml; CPT-3-F11 on particles, labeled antibody PEP-001
# human C-peptide (human) [11] = experiment: ELISA on immobilized C-peptide; labeled antibody 1.0 ug/ml, free C-peptide 10 ug/ml
# human proinsulin (human) [12] = molecular target: human proinsulin (human) (UniProt P01308); experiment: sandwich immunoassay, one-step, against C-peptide calibration; proinsulin 400 ng/ml; CPT-3-F11 on particles, labeled antibody 9101
# human proinsulin (human) [13] = molecular target: human proinsulin (human) (UniProt P01308); experiment: sandwich immunoassay, two-step; proinsulin 200 ng/ml; CPT-3F-11 on particles, labeled antibody 9101
# human proinsulin (human) [14] = molecular target: human proinsulin (human) (UniProt P01308); experiment: sandwich immunoassay, one-step, against C-peptide calibration; proinsulin 50 ng/ml; CPT-3-F11 on particles, labeled antibody 9101
# human C-peptide (human) [15] = experiment: sandwich immunoassay, one-step; CPT-3F-11 on particles, labeled antibody PEP-001
# human proinsulin (human) [16] = molecular target: human proinsulin (human) (UniProt P01308); experiment: sandwich immunoassay, one-step, against C-peptide calibration; proinsulin 400 ng/ml; CPT-3-F11 on particles, labeled antibody PEP-001
# human proinsulin (human) [17] = molecular target: human proinsulin (human) (UniProt P01308); experiment: sandwich immunoassay, two-step; proinsulin 400 ng/ml; CPT-3F-11 on particles, labeled antibody 9101
# human C-peptide (human) [18] = experiment: ELISA on immobilized C-peptide; labeled antibody 0.1 ug/ml, free C-peptide 10 ug/ml
# human proinsulin (human) [19] = molecular target: human proinsulin (human) (UniProt P01308); experiment: sandwich immunoassay, two-step; proinsulin 50 ng/ml; CPT-3F-11 on particles, labeled antibody 9101
# human C-peptide (human) [20] = experiment: ELISA on immobilized C-peptide; labeled antibody 1.0 ug/ml, free C-peptide 1.0 ug/ml
# human C-peptide (human) [21] = experiment: ELISA on immobilized C-peptide; labeled antibody 10 ug/ml, free C-peptide 1.0 ug/ml
# human C-peptide (human) [22] = experiment: sandwich immunoassay, two-step; CPT-3F-11 on particles, labeled antibody PEP-001
# [23] = molecular target: modified C-peptide (human C-peptide having Arg-Arg bound to its N-terminal and Lys-Arg bound to its C-terminal) (human); experiment: sandwich immunoassay, two-step, against C-peptide calibration; modified C-peptide 5 ng/ml; CPT-3F-11 on particles, labeled antibody 9101
# human C-peptide (human) [24] = experiment: ELISA on immobilized C-peptide; labeled antibody 0.0 ug/ml (blank), free C-peptide 0.1 ug/ml
# human proinsulin (human) [25] = molecular target: human proinsulin (human) (UniProt P01308); experiment: sandwich immunoassay, one-step; proinsulin 400 ng/ml; CPT-3F-11 on particles, labeled antibody 9101
# human C-peptide (human) [26] = experiment: ELISA on immobilized C-peptide; labeled antibody 1.0 ug/ml, free C-peptide 0 ug/ml (reference)
# human C-peptide (human) [27] = experiment: ELISA on immobilized C-peptide; labeled antibody 1.0 ug/ml, free C-peptide 0.1 ug/ml
# human proinsulin (human) [28] = molecular target: human proinsulin (human) (UniProt P01308); experiment: sandwich immunoassay, two-step, against C-peptide calibration; proinsulin 50 ng/ml; CPT-3-F11 on particles, labeled antibody 9101
# human C-peptide (human) [29] = experiment: sandwich immunoassay, two-step; CPT-3F-11 on particles, labeled antibody 9101
# human C-peptide (human) [30] = experiment: ELISA on immobilized C-peptide; labeled antibody 0.1 ug/ml, free C-peptide 0 ug/ml
# human C-peptide (human) [31] = experiment: ELISA on immobilized C-peptide; labeled antibody 0.1 ug/ml, free C-peptide 1.0 ug/ml
# human proinsulin (human) [32] = molecular target: human proinsulin (human) (UniProt P01308); experiment: sandwich immunoassay, two-step, against C-peptide calibration; proinsulin 50 ng/ml; CPT-3-F11 on particles, labeled antibody PEP-001
# [33] = molecular target: modified C-peptide (human C-peptide having Arg-Arg bound to its N-terminal and Lys-Arg bound to its C-terminal) (human); experiment: sandwich immunoassay, one-step, against C-peptide calibration; modified C-peptide 5 ng/ml; CPT-3F-11 on particles, labeled antibody PEP-001
# Chain of UniProt P01308 (P01308 25-110): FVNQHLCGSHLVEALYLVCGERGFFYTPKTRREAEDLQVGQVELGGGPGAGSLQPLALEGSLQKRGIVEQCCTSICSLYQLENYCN
# Chain of human C-peptide (human) (peptide, as listed by the source): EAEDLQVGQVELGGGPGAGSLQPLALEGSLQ
substance,measurement,setting,value
anti-human C-peptide monoclonal antibody CPT-3-F11 (Dako),Absorbance (absorbance at 405 nm),human C-peptide (human) [1],2.17
same,Cross-reactivity (%) to Human Proinsulin,human proinsulin (human) [2],56.8%
same,counts of chemiluminescence,human proinsulin (human) [3],4140 counts
same,Cross-reactivity (%) to Modified C-peptide,[4],53.2%
same,Cross-reactivity (%) to Human Proinsulin,human proinsulin (human) [5],1.2%
same,counts of chemiluminescence,human proinsulin (human) [6],51300 counts
same,Binding Ratio,human C-peptide (human) [7],100%
same,Cross-reactivity (%) to Human Proinsulin,human proinsulin (human) [8],1.4%
same,Cross-reactivity (%) to Human Proinsulin,human proinsulin (human) [9],2.6%
same,Cross-reactivity (%) to Human Proinsulin,human proinsulin (human) [10],> 15%
same,Absorbance (absorbance at 405 nm),human C-peptide (human) [11],0.003
same,Binding Ratio,human C-peptide (human) [11],0.2%
same,Cross-reactivity (%) to Human Proinsulin,human proinsulin (human) [12],3%
same,counts of chemiluminescence,human proinsulin (human) [13],42500 counts
same,Cross-reactivity (%) to Human Proinsulin,human proinsulin (human) [14],0.9%
same,2S/N value,human C-peptide (human) [15],0.012 ng/mL
same,Cross-reactivity (%) to Human Proinsulin,human proinsulin (human) [16],> 15%
same,counts of chemiluminescence,human proinsulin (human) [17],99400 counts
same,Absorbance (absorbance at 405 nm),human C-peptide (human) [18],0
same,Binding Ratio,human C-peptide (human) [18],0%
same,counts of chemiluminescence,human proinsulin (human) [19],4400 counts
same,Absorbance (absorbance at 405 nm),human C-peptide (human) [20],0.062
same,Binding Ratio,human C-peptide (human) [20],3.2%
same,Absorbance (absorbance at 405 nm),human C-peptide (human) [21],0.059
same,Binding Ratio,human C-peptide (human) [21],2.7%
same,2S/N value,human C-peptide (human) [22],0.006 ng/mL
same,Cross-reactivity (%) to Modified C-peptide,[23],0.5%
same,Absorbance (absorbance at 405 nm),human C-peptide (human) [24],0
same,Binding Ratio,human C-peptide (human) [24],0%
same,counts of chemiluminescence,human proinsulin (human) [25],118000 counts
same,Binding Ratio,human C-peptide (human) [26],100%
same,Absorbance (absorbance at 405 nm),human C-peptide (human) [27],0.311
same,Binding Ratio,human C-peptide (human) [27],16%
same,Cross-reactivity (%) to Human Proinsulin,human proinsulin (human) [28],0.4%
same,2S/N value,human C-peptide (human) [29],0.005 ng/mL
same,Absorbance (absorbance at 405 nm),human C-peptide (human) [30],1.52
same,Absorbance (absorbance at 405 nm),human C-peptide (human) [31],0.026
same,Binding Ratio,human C-peptide (human) [31],1.7%
same,Cross-reactivity (%) to Human Proinsulin,human proinsulin (human) [32],41.1%
same,Cross-reactivity (%) to Modified C-peptide,[33],62.7%
